Measured values reported in publication PMC3323579, “Direct Ubiquitin Independent Recognition and Degradation of a Folded Protein by the Eukaryotic Proteasomes-Origin of Intrinsic Degradation Signals” (PLoS ONE, 2012).
No end group written: not given here. *: point of attachment. Biotin = O=C1N[C@H]2[C@H](CS[C@H]2CCCCC(=O)*)N1

Target: yeast 26S proteasome (RPN11-3XFLAG) (yeast, UniProt P43588 1-306)
Assay: ELISA; competition: 8 nM apoMb on immobilised 26S proteasome with peptides 100 µM to 0.01 µM; 100 nM MG132 in all incubations; Ki from a one site binding fit
Conditions: both partners purified

Ki: 800 ± 400 nM
B1: A-helix peptide of myoglobin (peptide)
chain: Biotin-EWQLVLHVWAKVEAD
